Measurements taken from patent US11319374B2, “Inhibitors of prototypic galectin dimerization and uses thereof” (INSTITUT NATIONAL DE LA RECHERCHE SCIENTIFIQUE, priority 2015, dated 2022).

Legend:
Jurkat T cells = assay: hGal-7-induced apoptosis of Jurkat T cells, Annexin V/PI flow cytometry; assay type: cell-based; conditions: 4 h at 37° C., FIGS. 5B and 5C
Experimental: Apoptosis assays with Annexin V/PI staining. Apoptosis was measured by flow cytometry using FITC-labeled Annexin V (Biolegend®, San Diego, Calif., USA) and propidium iodide. Briefly, the corresponding dilutions of recombinant hGal-7 and hGal-7(129-135) peptides were pre-incubated for 1 h at 4° C. in serum-free RPMI 1640 medium. 2.5×10^5 Jurkat cells were then harvested in the same medium and incubated with their corresponding dilutions at 37° C. for 4 h. Cells were washed once in PBS and once in binding buffer (0.01 M HEPES, 0.14 M NaCl, 2.5 mM CaCl2, pH 7.4). Cells were then incubated for 15 min with Annexin V in the dark at room temperature. A total of 400 μL of binding buffer containing 0.25 μg/mL propidium iodide was added to the cells before analysis by flow cytometry.
It was thus tested whether hGal-7(129-135) could modulate the binding of hGal-7 on Jurkat T cells, a cell model that is commonly used to test the pro-apoptotic activity of galectins. For this purpose, recombinant hGal-7 was labeled with fluorescein isothiocyante (FITC) and its binding on the surface of Jurkat T cells was measured by flow cytometry in absence or presence of increasing concentrations of hGal-7(129-135). […] The effect of hGal-7(129-135) was specific, statistically significant (FIG. 4B), and consistent with the increased number of monomers, which bind to surface glycosylated receptors through their CRDs. […]

hGal-7 homodimer = target: T1, hGal-7 homodimer (Homo sapiens, UniProt P47929); assay: hGal-7 homodimer disruption, low-SDS native gel electrophoresis / Western blotting; assay type: biochemical; conditions: recombinant hGal-7 0.5 μM
T1 construct: made in house; host or cells: E. coli BL21 (DE3)
Experimental: Production of recombinant hGal-7 and hGal-1. Human Gal-7 cDNA was cloned into pET-22b(+) using Ndel and HindIII restriction enzymes. Human pET-Gal-1 vector was generously donated by Dr. S. Sato (McGill University, QC, Canada). The proteins were produced in E. coli BL21 (DE3) cells at 37° C. Isopropyl p-D-1-thiogalactopyranoside (IPTG) (1 mM) was added to the bacterial culture at OD600nm=0.6-0.7 and then incubated for 4 h at 37° C. to allow protein production. Bacterial pellets were resuspended in lysis buffer (0.7 mg/mL lysozyme, 10 mM Tris pH 8, 100 mM NaCl, 1 mM EDTA, 1 mM DTT and a protease inhibitor cocktail) and then incubated for 1 h at 37° C. prior to centrifugation for 30 min at 15,000×g (4° C.). The supernatant was then filtered with 500 mL bottle top filter ([…]) (Corning®, New York, N.Y., USA) and then ran through a lactose-agarose column (Sigma®, St. Louis, Mo., USA). The protein was eluted in 1 mL fractions with 150 mM lactose solution. Purified fractions were analyzed by SDS-PAGE. The hGal-7 was then concentrated and purified using Centrifugal filter units (Amicon® Ultra-15, 10K) (EMD®, Etobicoke, ON) in 20 mM potassium phosphate at pH 7.1. All subsequent experiments with the recombinant proteins were performed in the same buffer solution unless mentioned otherwise. Brilliant Coomassie blue was purchased from BioRad® (Bio-Rad Laboratories®, Mississauga, ON, Canada). The recombinant human Bcl-2 protein fragment was purchased from Abcam® (Abcam®, Cambridge, UK, Cat #ab73696).
Western blotting. For the apoptosis tests, whole-cell extracts were homogenized and resuspended in RIPA buffer (Thermo Fisher Scientific®, Rockford, Ill., USA) containing protease inhibitors (Roche®, Laval, QC, Canada). Equal amounts of whole-cell extracts (25 μg) were separated on SDS-PAGE and transferred onto nitrocellulose membranes (Bio-Rad Laboratories®). The membranes were first blocked with 5% milk [w/v] in TBS/0.5% Tween® 20 [v/v] for 1 h at room temperature and subsequently blotted overnight in a solution of TBS containing 3% BSA [w/v] and 0.5% Tween 20 [v/v]. The following antibodies were used: a rabbit anti-Poly-(ADP-ribose) polymerase (PARP)-1 (p25) polyclonal antibody (1:5000; Epitomics®, Burlingame, Calif., USA) and a mouse anti-β-actin (1:10000; Sigma-Aldrich®, St-Louis, Mo., USA). Secondary antibodies consisted of horseradish peroxidase-conjugated donkey anti-rabbit (GE Healthcare®, Buckinghamshire, England) and sheep anti-mouse (GE Healthcare®) IgG. Detection was performed using the enhanced chemiluminescence method (GE Healthcare®). For the recombinant protein tests, each peptide was dissolved and maintained in 20 mM potassium phosphate at pH 7.1. The recombinant proteins and peptide dilutions were pre-incubated for 1 h at 4° C. prior to gel migration. The native polyacrylamide gel was made without SDS to allow molecular weight differentiation between the dimer and monomer. The following antibodies were used: a goat anti-Gal-7 antibody (1:10000; R&D Systems®, Minneapolis, Minn., USA), a mouse anti-Gal-1 antibody (1:10000; Proteintech®, Chicago, Ill., USA) and a rabbit anti-Bcl-2 antibody (1:1000; Abeam®, Cambridge, UK). Secondary antibodies consisted of donkey anti-goat (R&D Systems®) or sheep anti-mouse and sheep anti-rabbit (GE Healthcare®) IgG. Detection was performed as described above.
To determine whether these peptides could inhibit the formation of the hGal-7 homodimer, recombinant hGal-7 (0.5 μM) was incubated with increasing concentrations of hGal-7(13-25), hGal-7(85-102), hGal-7(95-108) or hGal 7(129-135) and the formation of homodimers was measured. To measure the ability of the peptides to disrupt the formation of hGal-7 dimers, a mild denaturing (low SDS) native gel electrophoresis, a commonly used approach to visualize monomer-dimer equilibrium, was used (FIG. 1A and FIG. 6).

[1] = 20 mM potassium phosphate pH 7.1, FIG. 2A

T1 sequence (P47929 2-136 limits assumed): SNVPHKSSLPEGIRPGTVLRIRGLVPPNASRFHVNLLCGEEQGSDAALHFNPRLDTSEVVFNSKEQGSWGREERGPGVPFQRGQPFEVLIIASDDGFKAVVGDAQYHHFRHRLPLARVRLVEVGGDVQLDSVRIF

H-Leu-Asp-Ser-Val-Arg-Ile-Phe-NH2 (H-LDSVRIF-NH2; listed as Homo sapiens) [hGal-7(129-135), peptide corresponding to residues 129-135 of hGal-7]
inhibition of hGal-7-induced apoptosis, Annexin V/PI staining (Jurkat T cells): confirmed | disruption of hGal-7 homodimers in the presence of lactose (hGal-7 homodimer; 0.1 mM lactose solution, FIG. 2D): not inhibited by the presence of lactose | concentration at which consistent decrease of hGal-7 homodimers starts (hGal-7 homodimer; [1]): 10 µM | saturation dose for decrease of hGal-7 homodimers (hGal-7 homodimer; [1]): 100 µM
